# Test results as given in PMC3749867, “Evolutionarily conserved structural changes in phosphatidylinositol 5-phosphate 4-kinase (PI5P4K) isoforms are responsible for differences in enzyme activity and localization” (Biochemical Journal, 2013).
# Experiments:
# Conditions in all cases: PtdIns5P co-substrate, 10 mM MgCl2, pH 7.4, 30 °C, ATP 0–150 μM
# [1] = substrate: Nc1ncnc2c1ncn2[C@@H]1O[C@H](COP(=O)(O)OP(=O)(O)OP(=O)(O)O)[C@@H](O)[C@H]1O; assay: purified protein
# [2] = substrate: Nc1ncnc2c1ncn2[C@@H]1O[C@H](COP(=O)(O)OP(=O)(O)OP(=O)(O)O)[C@@H](O)[C@H]1O; assay: radiometric lipid kinase assay, TLC; assay type: biochemical, Homo sapiens
# Description: radiometric lipid kinase assay, TLC on PI5P4Kβ
# [3] = substrate: Nc1ncnc2c1ncn2[C@@H]1O[C@H](COP(=O)(O)OP(=O)(O)OP(=O)(O)O)[C@@H](O)[C@H]1O; assay: radiometric lipid kinase assay, TLC; assay type: biochemical, Homo sapiens; remark: listed apart in the source
protein,measurement,setting,value
PI5P4Kγ (Homo sapiens) (protein) ASSSVPPATVSAATAGPGPGFGFASKTKKKHFVQQKVKVFRAADPLVGVFLWGVAHSINELSQVPPPVMLLPDDFKASSKIKVNNHLFHRENLPSHFKFKEYCPQVFRNLRDRFGIDDQDYLVSLTRNPPSESEGSDGRFLISYDRTLVIKEVSSEDIADMHSNLSNYHQYIVKCHGNTLLPQFLGMYRVSVDNEDSYMLVMRNMFSHRLPVHRKYDLKGSLVSREASDKEKVKELPTLKDMDFLNKNQKVYIGEEEKKIFLEKLKRDVEFLVQLKIMDYSLLLGIHDIIRGSEPEEEAPVREDESEVDGDCSLTGPPALVGSYGTSPEGIGGYIHSHRPLGPGEFESFIDVYAIRSAEGAPQKEVYFMGLIDILTQYDAKKKAAHAAKTVKHGAGAEISTVHPEQYAKRFLDFITNIFA,Km,[1],94.18 µM
same,kcat,[1],5.72e-06 s⁻¹
"PI5P4Kβ (Homo sapiens) (protein, full-length cDNA in pGEX6P, E. coli BL21(DE3), GST fusion or GST cleaved by PreScission; mutant PI5P4Kβ+ His-tagged; homodimer) MSSNCTSTTAVAVAPLSASKTKTKKKHFVCQKVKLFRASEPILSVLMWGVNHTINELSNVPVPVMLMPDDFKAYSKIKVDNHLFNKENLPSRFKFKEYCPMVFRNLRERFGIDDQDYQNSVTRSAPINSDSQGRCGTRFLTTYDRRFVIKTVSSEDVAEMHNILKKYHQFIVECHGNTLLPQFLGMYRLTVDGVETYMVVTRNVFSHRLTVHRKYDLKGSTVAREASDKEKAKDLPTFKDNDFLNEGQKLHVGEESKKNFLEKLKRDVEFLAQLKIMDYSLLVGIHDVDRAEQEEMEVEERAEDEECENDGVGGNLLCSYGTPPDSPGNLLSFPRFFGPGEFDPSVDVYAMKSHESSPKKEVYFMAIIDILTPYDTKKKAAHAAKTVKHGAGAEISTVNPEQYSKRFNEFMSNILT",Km,[2],67.05 µM
same,kcat,[2],9.55e-05 s⁻¹
"PI5P4Kα (Homo sapiens) (protein, full-length cDNA in pGEX6P, E. coli BL21(DE3), GST fusion or GST cleaved by PreScission; His6-tagged version used as standard for kcat conversion; homodimer) MATPGNLGSSVLASKTKTKKKHFVAQKVKLFRASDPLLSVLMWGVNHSINELSHVQIPVMLMPDDFKAYSKIKVDNHLFNKENMPSHFKFKEYCPMVFRNLRERFGIDDQDFQNSLTRSAPLPNDSQARSGARFHTSYDKRYIIKTITSEDVAEMHNILKKYHQYIVECHGITLLPQFLGMYRLNVDGVEIYVIVTRNVFSHRLSVYRKYDLKGSTVAREASDKEKAKELPTLKDNDFINEGQKIYIDDNNKKVFLEKLKKDVEFLAQLKLMDYSLLVGIHDVERAEQEEVECEENDGEEEGESDGTHPVGTPPDSPGNTLNSSPPLAPGEFDPNIDVYGIKCHENSPRKEVYFMAIIDILTHYDAKKKAAHAAKTVKHGAGAEISTVNPEQYSKRFLDFIGHILT",Km,[3],3.94 µM
same,kcat,[3],0.0105 s⁻¹
